28 sequences from the Immune Epitope Database (IEDB) can be followed below.

Some targets named below: HLA-A*33:01; HLA-A*68:01; HLA-A*03:01; HLA-A*11:01; HLA-A*31:01.
What all share (experiment): IEDB peptide-MHC binding, purified MHC/competitive/radioactivity; filed as Kd, often an IC50 or EC50 that approximates it; ≥ and ≤ were set here for values at or beyond the usual limits of such assays
Where [1] appears, read: source organism: SARS coronavirus Tor2.
Setting [2] is: source organism: Vaccinia virus WR.
The mark [3] stands for this setting: source organism: Dengue virus 2 Jamaica/1409/1983.
Where [4] appears, read: source organism: Vaccinia virus Copenhagen.
Where [5] appears, read: source organism: Mammarenavirus lassaense.
Where [6] appears, read: source organism: Dengue virus 3 Martinique/1243/1999.
Where [7] appears, read: source organism: Dengue virus 1 Brazil/97-11/1997.

pKd: −log10 of the molar value.

What is called pKd is the Kd on a negative log10 scale, so that one unit is a factor of ten. ACQEAVKLK: the pKd with HLA-A*33:01 (source organism: Mammarenavirus juninense) is not above 4.11.
AFSLDVSEK: the pKd with HLA-A*68:01 (setting [1]) was 5.17; with HLA-A*03:01 (setting [1]), 4.92; with HLA-A*33:01 (setting [1]), not above 4.11; with HLA-A*11:01 (setting [1]) it was 5.45; with HLA-A*31:01 (setting [1]), 4.91.
In the case of AIEKDRLDK, the pKd with HLA-A*68:01 (setting [2]) was not above 4.11; in the test with HLA-A*03:01 (setting [2]), not above 4.11; in the test with HLA-A*33:01 (setting [2]) it was not above 4.11; with HLA-A*11:01 (setting [2]) it was 5.95; with HLA-A*31:01 (setting [2]) it was not above 4.11.
For ALALGMMVLK, the pKd was 7.62 in the test with HLA-A*03:01 (setting [3]) and 7.86 with HLA-A*11:01 (setting [3]).
On to AVEDEEFWK, for which the pKd with HLA-A*11:01 (source organism: Dengue virus 3 Sri Lanka/1266/2000) is 6.03.
Take AVVCYNSNY: the pKd with HLA-A*68:01 (setting [1]) was 5.00; with HLA-A*03:01 (setting [1]) it was 5.27; with HLA-A*33:01 (setting [1]), not above 4.11; in the test with HLA-A*11:01 (setting [1]), 6.16; in the test with HLA-A*31:01 (setting [1]), 4.85.
As to CLAVHECFVK, the pKd was 5.64 with HLA-A*68:01 (setting [1]); 5.52 in the test with HLA-A*03:01 (setting [1]); not above 4.21 with HLA-A*33:01 (setting [1]); 5.46 in the test with HLA-A*11:01 (setting [1]); 5.12 in the test with HLA-A*31:01 (setting [1]).
Regarding CLEWLRAKR, the pKd in the test with HLA-A*68:01 (setting [2]) is 6.53; with HLA-A*03:01 (setting [2]), 4.88; with HLA-A*33:01 (setting [2]), 6.36; with HLA-A*11:01 (setting [2]), not above 4.31; with HLA-A*31:01 (setting [2]), 7.12.
Taken in the same sequence, the figures for CLLAISAVY were 6.80, 6.01, 5.07, 5.30 and 6.43.
As for CQLMYALEPR, the pKd was 8.12 in the test with HLA-A*68:01 (setting [4]); 7.24 in the test with HLA-A*03:01 (setting [4]); 7.84 with HLA-A*33:01 (setting [4]); 7.41 with HLA-A*11:01 (setting [4]); 5.98 in the test with HLA-A*31:01 (setting [4]).
Consider CYLDTNIKM, for which the pKd with HLA-A*68:01 (setting [2]) is not above 4.59; with HLA-A*03:01 (setting [2]), not above 4.41; in the test with HLA-A*33:01 (setting [2]), 4.96; in the test with HLA-A*11:01 (setting [2]) it was not above 4.11; with HLA-A*31:01 (setting [2]), 6.55.
DENKWKSAR: the pKd in the test with HLA-A*33:01 (setting [3]) is 6.51.
DIETAIRAGY: the pKd with HLA-A*68:01 (setting [2]) was 5.91; in the test with HLA-A*03:01 (setting [2]), 5.61; in the test with HLA-A*33:01 (setting [2]), 5.17; in the test with HLA-A*11:01 (setting [2]) it was 5.24; with HLA-A*31:01 (setting [2]), 4.71.
The matching figures for DIFVSLVKK: 9.27, 5.00, 7.27, 7.56 and not above 4.11.
Taken in the same sequence, the figures for DIVNGKECCY were not above 4.15, not above 4.15, not above 4.15, not above 4.16 and not above 4.15.
The matching figures for DIVNNFITK: 7.06, not above 4.39, not above 4.57, 6.00 and not above 4.53.
Consider DLIKKSDAK, for which the negative logarithm of the Kd (pKd) in the test with HLA-A*68:01 (setting [2]) is 5.67; in the test with HLA-A*03:01 (setting [2]), not above 4.42; with HLA-A*33:01 (setting [2]) it was 5.18; in the test with HLA-A*11:01 (setting [2]), not above 4.50; with HLA-A*31:01 (setting [2]), not above 4.11.
The matching figures for DLVKSSFVKK: 5.95, 6.81, 6.55, 6.75 and 6.77.
The matching figures for DMMFINSTCY: 5.72, 6.09, 6.05, 4.97 and 6.01.
Consider DSCNANGCEH, for which the pKd is not above 4.15 with HLA-A*68:01 (setting [5]); not above 4.15 with HLA-A*03:01 (setting [5]); not above 4.15 with HLA-A*33:01 (setting [5]); not above 4.16 with HLA-A*11:01 (setting [5]); not above 4.15 with HLA-A*31:01 (setting [5]).
For the sequence DVIGERIKR, the negative logarithm of the Kd (pKd) was 7.61 with HLA-A*68:01 (setting [6]) and 7.41 with HLA-A*33:01 (setting [6]).
In the case of DWLEKHGAER, the pKd with HLA-A*33:01 (setting [7]) is 6.90.
With EACYIYKSGK, the pKd with HLA-A*68:01 (setting [2]) is 7.50; with HLA-A*03:01 (setting [2]), 5.97; in the test with HLA-A*33:01 (setting [2]), 4.95; with HLA-A*11:01 (setting [2]), 6.00; with HLA-A*31:01 (setting [2]) it was 5.19.
Consider EARIVDKFGK, for which the pKd in the test with HLA-A*68:01 (setting [2]) is 7.00; with HLA-A*03:01 (setting [2]), 5.11; in the test with HLA-A*33:01 (setting [2]), not above 4.69; with HLA-A*11:01 (setting [2]), 5.59; with HLA-A*31:01 (setting [2]), 6.20.
For ETKGVERLK, the pKd with HLA-A*68:01 (setting [6]) is 7.48.
On to ETLNEYKQLY, for which the pKd with HLA-A*68:01 (setting [2]) was 6.48; in the test with HLA-A*03:01 (setting [2]), 4.82; with HLA-A*33:01 (setting [2]) it was 6.27; with HLA-A*11:01 (setting [2]) it was 4.91; in the test with HLA-A*31:01 (setting [2]), not above 4.38.
Take EVHTWTEQYK: the pKd with HLA-A*68:01 (setting [7]) was 7.82.
Turning to FIKYVNGWVK, the pKd with HLA-A*68:01 (setting [2]) was 8.95; in the test with HLA-A*03:01 (setting [2]), 8.75; in the test with HLA-A*33:01 (setting [2]) it was 6.95; with HLA-A*11:01 (setting [2]), 8.81; with HLA-A*31:01 (setting [2]), 6.94.
